Here are results for two molecules from patent US20070031417A1 (UNIVERSITY OF MASSACHUSETTS, published 2007).

B1: RDE-4 (other)
chain: MDLTKLTFESVFGGSDVPMKPSRSEDNKTPRNRTDLEMFLKKTPLMVLEEAAKAVYQKTPTWGTVELPEGFEMTLILNEITVKGQATSKKAARQKAAVEYLRKVVEKGKHEIFFIPGTTKEEALSNIDQISDKAEELKRSTSDAVQDNDNDDSIPTSAEFPPGISPTENWVGKLQEKSQKSKLQAPIYEDSKNERTERFLVICTMCNQKTRGIRSKKKDAKNLAAWLMWKALEDGIESLESYDMVDVIENLEEAEHLLEIQDQASKIKDKHSALIDILSDKKRFSDYSMDFNVLSVSTMGIHQVLLEISFRRLVSPDPDDLEMGAEHTQTEEIMKATAEKEKLRKKNMPDSGPLVFAGHGSSAEEAKQCACKSAIIHFNTYDFTD
notes: Endogenous protein from C. elegans extract; also called T20G5.11

Common to all, as to assay: found in two independent RDE-4 purifications, absent from controls, MudPIT (P = present)
The target in experiment [1] is T1, EFT-2, EF-Tu family GTP binding protein (Caenorhabditis elegans, UniProt P29691 2-852).
T1 construct: Endogenous protein from C. elegans extract; also called F25H5.4; translation elongation factor 2

The target of the next experiment is T2, TBB-4 (Caenorhabditis elegans, UniProt P41937 1-444).
T2 construct: Endogenous protein from C. elegans extract; also called B0272.1; tubulin, Beta

In the experiment “RDE-4” the target is B1.

T2 sequence (P41937 whole entry): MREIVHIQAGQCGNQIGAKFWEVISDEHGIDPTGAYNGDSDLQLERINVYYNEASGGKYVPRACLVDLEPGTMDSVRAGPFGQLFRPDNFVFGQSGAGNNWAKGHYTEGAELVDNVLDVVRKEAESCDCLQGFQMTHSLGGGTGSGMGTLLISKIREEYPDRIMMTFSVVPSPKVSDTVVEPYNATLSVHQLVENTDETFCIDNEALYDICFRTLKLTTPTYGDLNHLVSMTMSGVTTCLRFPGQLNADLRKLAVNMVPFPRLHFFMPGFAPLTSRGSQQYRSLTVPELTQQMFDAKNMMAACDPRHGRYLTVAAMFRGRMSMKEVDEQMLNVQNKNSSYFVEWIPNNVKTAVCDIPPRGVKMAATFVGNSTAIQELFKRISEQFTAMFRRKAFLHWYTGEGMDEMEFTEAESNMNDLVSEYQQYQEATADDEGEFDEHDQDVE

B1: the binding result (in experiment [1]; in the experiment with TBB-4) was “binds” in each case.

B2: DRH-2 (enzyme)
chain: MIVNLCNEHRDPLDDEYPPEQFFLSTFTIIFFDECHNTVKNSPYSNVMREYHYLKNMGNMPEGHSFPQIIGLTASLGTGDKKNCMQVRSYIAGLCANMDVKELSIVKDNLEELLDHNPFVTDQVSFCERSNDGPIEMFTKRLKQMMQEVEDLIRTTLKNEPTVKYEIPPTDKEHNRYENWISNQRNCVSLAGSRNKTLIIEVLDVLKDCFYALSYNINFNPEVALKKYLEKELGPERIRNFTDNMNLIWDNCHRELVGIGSAENPMIARTVQFILDQNEQTSDFRAIIFVRTKKEADFLNYVLNDRLHELGIKSDWMSGQKKSTASSADISASKQKQMEKLKMFADGENQILVSTSVAEEGLDIPECSLVIKYNYATNETAHVQRRGRARARNSKCVLITNSIALHVQESNNLAKENLMTETISLIQNSPGEFRQCVDEESNKVWPRIQREDTDKAQRIKEQINRNIVYKIVCMKCDTVLCTNKDIRSKNTQYIVCNPGFWSLVRRIPLPLEQRASNKFNSTGSIECLGERCGSKLGQLIDVNTVNLPCLKVKSILLLIESTNERILVKQWKNILDEHFTPTTLKQRDVQTMKDADYGRAPIEFEHHTANGEVINVIRQA
notes: Endogenous protein from C. elegans extract; also called C01B10.1; Dicer-Related Helicase
Regarding B2, the binding result in the experiment with RDE-4 is on record as “binds”.
